Experimental data as given in ChEMBL document CHEMBL1137932, “Synthesis of S-alkyl L-homocysteine analogues of glutathione and their kinetic studies with gamma-glutamyl transpeptidase” (Bioorg Med Chem Lett, 2004).

What was measured:
[1] = tested on: NC(CC[S+]([O-])CCC(=O)NCC(=O)O)C(=O)O; assay: (§1) Michaelis-Menten constant for Gamma-glutamyltranspeptidase in rat kidney
[2] = tested on: N[C@@H](CCS(=O)(=O)CCC(=O)NCC(=O)O)C(=O)O; assay: as §1

Glutathione hydrolase 1 proenzyme (Rattus norvegicus), P07314, sequence (P07314 whole entry): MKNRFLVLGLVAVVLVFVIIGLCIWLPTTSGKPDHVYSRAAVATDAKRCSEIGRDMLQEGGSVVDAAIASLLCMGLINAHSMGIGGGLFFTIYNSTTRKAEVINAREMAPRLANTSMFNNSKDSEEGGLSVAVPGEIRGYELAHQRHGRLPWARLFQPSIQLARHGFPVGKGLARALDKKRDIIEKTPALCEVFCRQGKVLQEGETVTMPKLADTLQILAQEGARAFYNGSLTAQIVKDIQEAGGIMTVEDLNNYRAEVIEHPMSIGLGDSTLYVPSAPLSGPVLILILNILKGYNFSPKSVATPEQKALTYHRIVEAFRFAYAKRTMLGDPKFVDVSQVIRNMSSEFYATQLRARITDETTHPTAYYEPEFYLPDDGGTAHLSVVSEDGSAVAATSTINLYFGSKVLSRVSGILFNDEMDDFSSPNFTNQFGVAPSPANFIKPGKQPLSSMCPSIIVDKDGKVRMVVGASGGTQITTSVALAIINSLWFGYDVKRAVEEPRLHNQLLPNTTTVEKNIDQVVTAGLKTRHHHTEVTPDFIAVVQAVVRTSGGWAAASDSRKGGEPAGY

Question: “Glutathione hydrolase 1 proenzyme (Rattus norvegicus), P07314” was tested. Which Km [1] did it give?
Answer: Its Km is 500 µM.

Question: And the Km [2]?
Answer: Its Km is 590 µM.
